Measurements: PMC5450233, “SKIP controls lysosome positioning using a composite kinesin-1 heavy and light chain-binding domain” (Journal of Cell Science, 2017)

B1: GST–KHC(815-955) (domain or fragment)
chain: not shown
notes: 3C protease site between GST and KHC (pMW-GST); source: E. coli BL21(DE3), purified (glutathione–Sepharose beads)
B2: SKIP(1-310) (domain or fragment, UniProt Q8IWE5 1-310, looked up)
chain: MEPGEVKDRILENISLSVKKLQSYFAACEDEIPAIRNHDKVLQRLCEHLDHALLYGLQDLSSGYWVLVVHFTRREAIKQIEVLQHVATNLGRSRAWLYLALNENSLESYLRLFQENLGLLHKYYVKNALVCSHDHLTLFLTLVSGLEFIRFELDLDAPYLDLAPYMPDYYKPQYLLDFEDRLPSSVHGSDSLSLNSFNSVTSTNLEWDDSAIAPSSEDYDFGDVFPAVPSVPSTDWEDGDLTDTVSGPRSTASDLTSSKASTRSPTQRQNPFNEEPAETVSSSDTTPVHTTSQEKEEAQALDPPDACTEL
notes: SKIP (PLEKHM2), residues 1-310; also called SKIP(1-310) with GST removed by 3C protease; source: E. coli, purified as a GST fusion, GST cleaved with 3C protease

What was measured:
Conditions in all cases: both partners purified
SKIP(1-310) [1] = biological target: B2; test: pull-down; GST–KHC(815-955) (0.5 nmol) on glutathione beads incubated with increasing concentrations of SKIP(1-310) in solution (up to 3.5 μM); SDS-PAGE, Coomassie, densitometry; one-site specific binding model with Hill slope; non-equilibrium, value to be interpreted with caution
GST–KHC(815-955) = biological target: B1; test: as above
SKIP(1-310) [2] = biological target: B2; test: pull-down; GST–KHC truncations (0.5 nmol) on glutathione–Sepharose beads incubated with 300 μl of 1.2 μM SKIP(1-310) for 2 h at 4°C; 25 mM HEPES pH 7.5, 150 mM NaCl, 5 mM β-mercaptoethanol; Coomassie-stained SDS-PAGE

Chain of GST–KHC(815-955) (P56536 815-955): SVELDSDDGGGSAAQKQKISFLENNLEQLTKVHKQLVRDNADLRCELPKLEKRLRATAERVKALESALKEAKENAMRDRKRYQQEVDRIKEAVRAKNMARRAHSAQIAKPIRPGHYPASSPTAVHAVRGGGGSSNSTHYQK

B1
Kd (SKIP(1-310) [1]): ~1.5 µM

B2
stoichiometry N (GST–KHC(815-955)): 1

B3: GST–KHC(815-917) (domain or fragment)
chain: not shown
notes: source: E. coli BL21(DE3), purified (glutathione–Sepharose beads)
binding result (SKIP(1-310) [2]): binds

B4: GST–KHC(876-917) (domain or fragment)
chain: not shown
notes: as for B3
binding result (SKIP(1-310) [2]): binds
